Assay results taken from PMC9601964.

Molecular target: T1, RihR (XRE-family regulator) (Azorhizobium caulinodans ORS571) (UniProt A8IKA5)
T1 sequence: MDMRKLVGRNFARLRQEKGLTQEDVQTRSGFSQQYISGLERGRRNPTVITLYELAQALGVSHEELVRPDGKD
Experiment: EMSA
Conditions: 50 mM Tris-HCl pH 8.3, 0.25 M KCl, 2.5 mM DTT, 5 mM MgCl2, 0.25 mg/mL BSA, 0.05 mg/mL poly(dI-dC), 2.5 mM EDTA, 1% glycerol; 20 uL, 20 min, room temperature; 6%

Sequence: CGGAATTCATCGCGGTGGTATTTTTGCGAGGAAGGCCGCGTTGGAAAACGATAGTCGGTGCTCGTTCATGCCGGCAAATGAGAAGATCGCCCATAGGTATGCAAAAATGATATGATAACAGCTGACCAGCTTTAGCCCGTGCGGACGAGGGGGAGAGGATGCGTTTCAGTCATCTAGAGC (double strand) [non-specific control promoter (Pcontrol)]
- binding: no binding
